Assay [1] concerns the target human PD-1, full length, expressed on the cell surface (human) (UniProt Q15116). Briefly: flow cytometry: human primary CD8 T cells, CD45RA high; PD-1 as the cells express it.
Assay [2] has the same target. Briefly: flow cytometry: human primary CD8 T cells, CD45RA med; PD-1 as the cells express it.
Assay [3] shares this target. In words: flow cytometry: human primary CD8 T cells, CD45RA low; PD-1 as the cells express it.
For assay [4] the target is unchanged. In words: flow cytometry: human primary CD4 T cells, CD45RA med; PD-1 as the cells express it. For orientation: Flow cytometry measures light scatter and fluorescence of single cells or particles in a stream.
The target is the same in assay [5]. Briefly: flow cytometry: human primary CD4 T cells, CD45RA high; PD-1 as the cells express it.
Assay [6] has the same target. In words: flow cytometry: human primary CD4 T cells, CD45RA low; PD-1 as the cells express it.
Assay [7] deals with T1, human B7-H1, full length, expressed on the cell surface (human, UniProt Q9NZQ7 19-290).
T1 construct: whole, on cells; also called CHO-hB7-H1; CHO-B7-H1 cells
T1 sequence (Q9NZQ7 19-290): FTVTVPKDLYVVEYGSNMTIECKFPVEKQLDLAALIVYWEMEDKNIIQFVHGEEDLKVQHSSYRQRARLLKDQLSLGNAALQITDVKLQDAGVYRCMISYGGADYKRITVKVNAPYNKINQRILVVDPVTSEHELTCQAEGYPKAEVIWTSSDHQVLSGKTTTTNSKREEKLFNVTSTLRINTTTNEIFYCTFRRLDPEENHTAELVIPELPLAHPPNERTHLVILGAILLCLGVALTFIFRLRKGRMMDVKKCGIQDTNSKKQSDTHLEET
Briefly: flow cytometry on CHO cells expressing human B7-H1, median fluorescence intensity.

For assay [8], the target named is T2, human PD-1-Fc (human, UniProt Q15116 25-167, limits assumed, biotinylated in the B7-DC blocking ELISA).
T2 construct: also called hPD-1-Fc; biotinylated PD-1-Fc
T2 sequence (Q15116 25-167 limits assumed): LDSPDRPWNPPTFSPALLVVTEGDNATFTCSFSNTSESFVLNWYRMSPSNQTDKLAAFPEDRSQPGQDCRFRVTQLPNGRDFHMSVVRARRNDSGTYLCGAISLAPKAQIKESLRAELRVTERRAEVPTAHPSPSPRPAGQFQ
In words: blocking, flow cytometry, by paragraph 273: the construct binds hPD-1-Fc and blocks its binding to hB7-H1 expressed by CHO cells (the legend paragraph 64 calls it a binding curve on CHO.hPD-1 cells; the curve falls). Also noted: unit not given here.

In assay [9] the target is T3, human PD-1, full length, expressed on the cell surface (human, UniProt Q15116 25-288). In words: cell-based or functional assay.
T3 sequence (Q15116 25-288): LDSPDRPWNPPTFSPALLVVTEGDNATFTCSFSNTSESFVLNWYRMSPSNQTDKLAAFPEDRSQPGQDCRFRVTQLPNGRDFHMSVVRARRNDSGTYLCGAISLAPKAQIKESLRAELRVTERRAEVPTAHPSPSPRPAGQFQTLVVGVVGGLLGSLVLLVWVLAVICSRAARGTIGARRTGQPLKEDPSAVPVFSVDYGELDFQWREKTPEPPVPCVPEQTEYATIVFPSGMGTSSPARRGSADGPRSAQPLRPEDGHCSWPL
Assay [10] addresses T4, human PD-1 (form in the assay not stated) (human, UniProt Q15116 25-167, limits assumed).
T4 construct: Used for the kinetic constants and EC50 values whose assay format is not described
Briefly: method not stated.

Assay [11] deals with T4, human PD-1 (form in the assay not …). In words: PD-1-specific binding at 0 to approximately 350 nM antibody (FIG. 20); format not stated.
Assay [12] addresses human PD-1, full length, expressed on the cell surface (human) (UniProt Q15116). Briefly: flow cytometry: CHO cells with full-length human PD-1 pre-incubated with Ctl Ig, then hB7-DC mIg + a-mIg-APC; a-mIg-APC alone MFI=10.
Assay [13] deals with T3, human PD-1, full length, expressed on …. In words: cell-based competition: CHO-hPD1 cells, antibody 30 min, then 10 µg/ml APC-labeled B7-DC-Fc; axis 100 to 0 without a unit (text: 0-0.1 mg/ml). The protocol: A cell-based competition assay was performed by incubating 50,000 CHO-hPD1 cells for 30 minutes with anti-PD-1 antibody (present at concentrations ranging from 0-0.1 mg/ml). […] The competition was repeated at a fixed antibody concentration of 20 μg/mL (FIG. 11).

Assay [14] deals with T2, human PD-1-Fc. Briefly: ELISA: hybridoma supernatant on immobilised rhPD-1/Fc, anti-mouse IgG. On the procedure: Splenocytes from anti-PD-1 positive animals were fused with myeloma cells following standard protocol. The resulting murine hybridomas were screened for those that express high affinity human PD-1-immunoreactive monoclonal antibodies. Antibodies were additionally evaluated to determine whether they were IgG or IgM antibodies. […] Hybridoma supernatants were then placed in contact with the support, and the presence of anti-PD-1 antibody was determined using labeled anti-mouse IgG or anti-mouse IgM.

In general, Kd refers to the constant that tells how readily two partners part at equilibrium. Usually koff stands for the first-order rate constant of dissociation. The kon is the second-order rate constant of association. The term EC50 denotes the concentration that produces a half-maximal response.

Where a chain is given by its changes, count along the chain named.

human PD-1, full length, expressed on the cell surface (human), sequence (Q15116 25-288): as above
T4 sequence (Q15116 25-167 limits assumed): as the sequence (Q15116 25-167 limits assumed) above

On to SYNAGIS (antibody), for which the number over the gate of positive cells in assay [1] was found to be 1.5; in assay [2] it was 1.6; in [3], 1.6; in assay [4], 1.1; in assay [5], 1.4; in assay [6], 2.1.

B1: Anti-Human B7-H1 Clone 1E12 (antibody, V domains shown)
VH: EVKLQESGPSLVKPSQTLSLTCSVTGYSITSDYWNWIRKFPGNKLEYVGYISYTGSTYYNPSLKSRISITRDTSKNQYYLQLNSVTSEDTATYYCARYGGWLSPFDYWGQGTTLTVSS
VL: DIVMTQSHKLMSTSVGDRVSITCKASQDVGTAVAWYQQKPGQSPKLLIYWASTRHTGVPDRFTGSGSGTDFTLTISNVQSEDLADYFCQQDSSYPLTFGAGTKVELK
notes: Murine hybridoma IgG
As for B1, the MFI in assay [7] is 56200.

B2: Anti-Human B7-H1 Clone 1F4 (antibody, V domains shown)
VH: EVQLQESGPGLVAPSQSLSITCTVSGFSLTTYSINWIRQPPGKGLEWLGVMWAGGGTNSNSVLKSRLIISKDNSKSQVFLKMNSLQTDDTARYYCARYYGNSPYYAIDYWGQGTSVTVSS
VL: B1 VL with M4T
notes: Murine hybridoma IgG
B2 registered an MFI in [7] of 62000.

B3: 1H3 Construct (chimeric murine anti-human PD-1 Fab regions of antibody 1H3 and a human IgG1 Fc region) (antibody, V domains shown)
VH: EVQLVESGGGLVKPGGSLKLSCAASGFTFSDYGMHWVRQAPEKGLEWVAYISSGSYTIYYTDTVKGRFTISRDNAKNTLFLQMTSLRSEDTAMYYCARRGYGSFYEYYFDYWGQGTTLTVSS
VL: QIVLTQSPALMSASPGEKVTMTCSASSSVSYMYWYQQKPRSSPKPWIYLTSNLASGVPARFSGSGSGTSYSLTISSMEAEDAATYYCQQWSSNPFTFGSGTKLEIK
notes: also called 1H3 anti-human PD-1 chimeric antibody; chimeric 1H3
Consider B3, for which the “IC50 (read off the curve)” value in the assay with human PD-1-Fc [8] was approximately 100. This molecule showed a T cell proliferation in assay [9] of approximately 7 fold. In assay [10], this molecule yielded a Kd of 2.19 nM, a dissociation rate constant (koff) of 0.000161 s⁻¹ and a kon of 73400 M⁻¹ s⁻¹. The molecule further returned an EC50 in [11] of 3 nM.

B4: h1H3 Var 2 (antibody, V domains shown)
VH: B3 VH with K13Q, K19R, E42G, T61A, T63S, F80Y, T84S, S88A, M93V, L118V
VL: EIVLTQSPATLSLSPGERATLSCRASSSVSYMYWYQQKPGQAPRLLIYLASNRATGIPARFSGSGSGTDYTLTISSLEPEDFAVYYCQQWSSNPFTFGQGTKLEIK
notes: Humanized variable domains LC1_1 / HC1_2
B4 returned an EC50 in assay [11] of 3 nM.

B5: h1H3 Var 4 (antibody, V domains shown)
VH: EVQLVESGGGLVQPGGSLRLSCAASGFTFSDYGMHWVRQAPGKGLEWVSYISSGSSTIYYADSVKGRFTISRDNAKNTLYLQMSSLRAEDTAVYYCARRGYGSFYEYYFDYWGQGTTVTVSS
VL: B4 VL with E1Q, R24S, A50T
notes: Humanized variable domains LC1_2 / HC1_1
Take B5: a half-maximal effect in assay [11] (EC50) was put at 6 nM.

B6: h1H3 Var 3 (antibody, V domains shown)
VH: B5 VH with S49A, S56Y, Y60S
VL: B4 VL
notes: Humanized variable domains LC1_1 / HC1_3
Molecule B6 displayed a half-maximal effective concentration (EC50) in assay [11] of 3 nM.

B7: h1H3 Var 1 (antibody, V domains shown)
VH: B5 VH
VL: B4 VL
notes: Humanized variable domains LC1_1 / HC1_1
In turn, B7 yielded an EC50 in assay [11] of 6 nM.

B8: h1H3 Var 5 (antibody, V domains shown)
VH: B5 VH with S49A, S56Y
VL: B4 VL with E1Q, R24S, A50T
notes: Humanized variable domains LC1_2 / HC1_2
Molecule B8 gave a half-maximal effective concentration (EC50) in assay [11] of 3 nM.

B9: h1H3 Var 6 (antibody, V domains shown)
VH: B5 VH with S49A, S56Y, Y60S
VL: B4 VL with E1Q, R24S, A50T
notes: Humanized variable domains LC1_2 / HC1_3
In the case of B9, in assay [11], the EC50 stood at 3 nM.

B10: B7-DC-Fc (Fc fusion, part only; not given: Fc part, human, UniProt Q9BQ51 20-220, looked up, part only)
chain, part: LFTVTVPKELYIIEHGSNVTLECNFDTGSHVNLGAITASLQKVENDTSPHRERATLLEEQLPLGKASFHIPQVQVRDEGQYQCIIIYGVAWDYKYLTLKVKASYRKINTHILKVPETDEVELTCQATGYPLAEVSWPNVSVPANTSHSRTPEGLYQVTSVLRLKPPPGRNFSCVFWNTHVRELTLASIDLQSQMEPRTHPT
modifications: APC-labeled or biotinylated in the cell-based assays
On to B10, for which the MFI in assay [12] is 2930.

B11: Anti-Human PD-1 Clone 1E3 (antibody, IgG1, V domains shown)
VH: EVQLQQSGPVLVKPGASVKMSCKASGYTFTDYYMNWVKQSHGKSLEWIGNINPYNGGTTYNQKFKGKATLTVDKSSRTAYMEINSLTSEDSAVYYCARGRIYDGSLDYWGQGTALTVSS
VL: DIQMTQFPSSLCASQGGKVTVTCKASQDINNYMAWYQHKPGKGPRLLIHYTSTLLSGIPSRFSGSGSGRDYSFSISNLEPEDIATYYCLQYDNLWTFGGGTKLEIK
notes: Murine hybridoma antibody, IgG1/kappa
On to B11, for which the binding result (in [13]; in the assay with human PD-1-Fc [14]) was “binds” in each case.

B12: Anti-Human B7-H1 Clone 3D10 (antibody, V domains shown)
VH: EVQLQQSGPDLVTPGASVRISCQASGYTFPDYYMNWVKQSHGKSLEWIGDIDPNYGGTTYNQKFKGKAILTVDRSSSTAYMELRSLTSEDSAVYYCARGALTDWGQGTSLTVSS
VL: QIVLSQSPAILSASPGEKVTMTCRASSSVSYIYWFQQKPGSSPKPWIYATFNLASGVPARFSGSGSGTSYSLTISRVETEDAATYYCQQWSNNPLTFGAGTKLELK
notes: Murine hybridoma IgG
In assay [7], B12 registered an MFI of 53100.

B13: Anti-Human B7-H1 Clone 3B6 (antibody, V domains shown)
VL: DIVMTQSPAIMSASPGEKVTMTCSASSSIRYMHWYQQKPGTSPKRWISDTSKLTSGVPARFSGSGSGTSYALTISSMEAEDAATYYCHQRSSYPWTFGGGTKLEIK
V domain: EVKLQESGPSLVKPGASVKLSCKASGYTFTSYDINWVKQRPGQGLEWIGWIFPRDNNTKYNENFKGKATLTVDTSSTTAYMELHSLTSEDSAVYFCTKENWVGDFDYWGQGTTLTLSS
notes: Murine hybridoma IgG
Turning to B13, the MFI in assay [7] stood at 59600.

Source of the values: patent US20140044738A1 (AstraZeneca / MedImmune, published 2014).
